From patent US20040005688A1 (University of California, published 2004) come the findings set out here.

The target in the experiment is T1, GST-fusion protein containing the PDZ domain of Dsh (Drosophila, UniProt P51140 250-338).
T1 construct: One of the smaller segments of the DM region made as GST fusions; not shown: glutathione S-transferase (GST) from a GST expression vector
T1 chain: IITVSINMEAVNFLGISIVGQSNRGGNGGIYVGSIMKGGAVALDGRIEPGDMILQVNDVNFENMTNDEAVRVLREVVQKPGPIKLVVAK
The experiment is described as follows: GST pull-down with segments of the DM region; in vitro kinase assay. The protocol: Lysates in buffer A with PIC were incubated with anti-Dsh or anti-DAK antibodies for 2-4 hours at 4° C. The immune complexes were collected by incubation with protein-A beads for 2 hours at 4° C., followed by centrifugation. The immunoprecipitates were then washed three times for 5-10 minutes each with Buffer A and subjected to SDS-PAGE or in vitro kinase assay. For precipitation by GST fusion proteins containing various regions of Dsh, lysates in buffer A with PIC were incubated for 2-4 hours at 4° C. with fusion proteins immobilized on glutathione agarose beads, followed by brief centrifugation. The glutathione beads were then washed three time for 5-10 minutes each with Buffer A and subjected to in vitro kinase assay, as described below.
The DAK activity was determined by a solid phase in vitro kinase assay after being brought down by immunoprecipitation (IP) or GST precipitation. The washed protein A or glutathione beads were then washed once with kinase buffer (50 mM Tris (pH 7.6), 10 mM MgCl₂) for 5 minutes at 4° C. The kinase reactions were carried out at room temperature for 30 minutes in a reaction volume of 20 μl containing 5:1 washed IP or GST beads, 1 μl [γ-³²P] ATP (10 μCi at 5000 Ci/mmol, Amersham) and 14 μl kinase buffer. […] The membranes were exposed to X-ray films or quantitated as indicated. […]

B1: Dishevelled Associated Kinase (DAK), endogenous kinase activity from Drosophila embryo and Clone-8 cell lysates (enzyme)
chain: MSTAMRTTLQSVPEALPADSVSNGTASNVAAPAAPVSSATNAVPPLAAVSSTTATYATNSISTSSHSVKDQQQQQQQQQHDSANANIVSLPPTTTPVANTNTMMPIVTSSNSATSNSTAATPTPASGAAATGGVGSVSQGPATVSASAANTNHSHQHSHQHHHHVANNMTTDGARLSSNNSAVVASSAINHHHHHTPGSGVAPTVNKNVLSTHSAHPSAIKQRTSSAKGSPNMQMRSSAPMRWRATEEHIGKYKLIKTIGKGNFAKVKLAKHLPTGKEVAIKIIDKTQLNPGSLQKLFREVRIMKMLDHPNIVKLFQVIETEKTLYLIMEYASGGEVFDYLVLHGRMKEKEARVKFRQIVSAVQYCHQKRIIHRDLKAENLLLDSELNIKIADFGFSNEFTPGSKLDTFCGSPPYAAPELFQGKKYDGPEVDVWSLGVILYTLVSGSLPFDGSTLRELRERVLRGKYRIPFYMSTDCENLLRKFLVLNPAKRASLETIMGDKWMNMGFEEDELKPYIEPKADLADPKRIEALVAMGYNRSEIEASLSQVRYDDVFATYLLLGRKSTDPESDGSRSGSSLSLRNISGNDAGANAGSASVQSPTHRGVHRSISASSTKPSRRASSGAETLRVGPTNAAATVAAATGAVGAVNPSNNYNAAGSAADRASVGSNFKRQNTIDSATIKENTARLAAQNQRPASATQKMLTTADTTLNSPAKPRTATKYDPTNGNRTVSGTSGIIPRRSTTLYEKTSSTEKTNVIPAETKMASAVKSSRHFPRNVPSRSTFHSGQTRARNNTALEYSGTSGASGDSSHPGRMSFFSKLSSRFSKRPNQ
notes: Native activity from lysates, not a defined construct; also called Dishevelled associated kinase activity; Dsh associated kinase activity
Consider B1, for which the binding result was “no binding”.
